# Assay results taken from the nanobody polyreactivity screen of Harvey et al. (2022).
# Experiment: yeast display, Sf9 membrane polyspecificity reagent, FACS + sequencing; frameworks hold sequencing errors
# Method in brief: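 Genes from sorted yeast were amplified by colony PCR, read by MiSeq 2 × 250 sequencing and filtered on CDR length. These cells carried a synthetic nanobody library in Saccharomyces cerevisiae BJ5465 and were sorted by FACS into low and high (top ~1%) gates on anti-HA and streptavidin fluorescence. Polyreactivity is labelled according to the gate of origin.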
row,Sequence,polyreactivity (PSR sort gate)
1,QVQLVESGGGLVQAGGSLRLTCAASGNIFYSYAMGWYRQAPGKERELVAAITIDGSTTYADSVKGRFTISRDNAKNTVYLQMNSLKPEDTAVYYCAKEGEAYPATYRYQFDYWGQGTQVTVSS,low polyreactivity
2,QVQLVESGGGLVQAGGSLRLTCAASGNTFDYYAMGWYRQAPGKERELVAAITRGGSTNYADSVKGRFTISRDNAKNTVYLQMNSLKPEDTAVYYCAAEQRAPRFADYDYWGQGTQVTVSS,low polyreactivity
3,QVQLVESGGGLVQAGGSLRLTCAASGNTFVSNAMGWYRQAPGKERELVAAINSGGSTNYADSVKGRFTISRDNAKNTVYLQMNSLKPEDTAVYYCNKDYDYPQRYWMDFWGQGTQVTVSS,low polyreactivity
4,QVQLVESGGGLVQAGGSLRLTCAASGNTFYGYAMGWYRQAPGKERELVASITLSGDSTYYADSVKGRFTISRDNAKNTVYLQMNSLKPEDTAVYYCAGVYTYPLGYFHYTYDYWGQVTQVTVSS,low polyreactivity
5,QVQLVESGGGLVQAGGSLRLTCAASGRIFGTNAMGWYRQAPGKERELVADITSGGSTNYADSVKGRFTISRDNAKNTVYLLMNSLKPEDTAVYYCAADVIGDLRWYRDEYWGQGTQVTVSS,low polyreactivity
6,QVQLVESGGGLVQAGGSLRLTCAASGRIFGVYVMGWYRQAPGKERELVAAISWGGGTYYADSVKGRFTISRDNAKNNVYLQMNSLKPEDTSVYYCNAESYYTMYYWGQGTQVNVSS,low polyreactivity
7,QVQLVESGGGLVQAGGSLRLTCAASGRIFNAYAMGWYRQAPGKEREFVAAISYTVGSTYYADTVKGRFTISRDNAKITVNLQMISLKPEDTAVYYCAATGWDYYGGYDYWGQGTQVTVSS,high polyreactivity
8,QVQLVESGGGLVQAGGSLRLTCAASGRIFPRNTMGWYRQAPGKERELVAAISVSGGSTYYADSVKGRFTNSRDNAKNTVYLQMNSLKPEDTAVYYWAARSARLEYYYWGQGTQVTVSS,high polyreactivity
9,QVQLVESGGGLVQAGGSLRLTCAASGRIFVYNAMGWYRQAPGKESEFVATITSSGGRTYYADSVKGRFTISRDNAKNTVYLQMNSLKTEDTAVYDCAASPHNYGRNTVYRYKYWGQGTQVTVSS,high polyreactivity
10,QVQLVESGGGLVQAGGSLRLTCAASGRIFYHYAMGWYRQATGKERELVATISGAGSTHYADSVKGRFTISRDNAKNTVYLQMNSLKAEDTAVYYCNADTYLIRYWSMLEYWGQGTQVTVSS,low polyreactivity
11,QVQLVESGGGLVQAGGSLRLTCAASGRILDRYVMGWYRQAPGKERELVAAISQSGRGTYYADSVKGRFTISRDNAKNTVYLQMNSLKPEVTAVYYCAARGTGYHGYGYWGQGSQVTVSS,high polyreactivity
12,QVQLVESGGGLVQAGGSLRLTCAASGRIYTYNAMGRYRKAPGKERELVATITWRGGGTYYADSVKGRFTISRDNAKNTVYLQMNSLKPEDTAVYYCIRRLPGDGQYGYRRFDYWGQGTQVTVSS,low polyreactivity
13,QVQLVESGGGLVQAGGSLRLTCAASGRTFARNAMGWYRQAPGKERELVAAITRSGGSTYYADSVKGRFTISRDNAKNTVYLQMNSLKPEDTAVYYCAADVRTYRGYYWKAFDYWGQGTQVTVSS,high polyreactivity
14,QVQLVESGGGLVQAGGSLRLTCAASGRTFFYNAMGWYRPAPGKERELVAAISWSGGRTYYADSVKGRFTISRDNAKNTVYLQMNSLKPEDTAVYYCASTGFYSSHYHLDYWGQGTQLTVSS,high polyreactivity
15,QVQLVESGGGLVQAGGSLRLTCAASGRTFGTYAMGWSRQAPGKERELVAVITNGGGTYYADSVKGRFTISRDNAKNTVYLQMNSLKPEDTAVYYCNTDRYGLRRWVYSYWGGYDYWGQGTQVTVSS,low polyreactivity
16,QVQLVESGGGLVQAGGSLRLTCAASGRTFKGYAMGWYRQEPGKERELVAAISYRGGSTYYADSVKGRFTISRDNAKNTVYLQMNSLKPEDTAVYYCAAQGRSKYRGYYYWGQGTQVTVSS,high polyreactivity

row,Sequence,polyreactivity (PSR sort gate)
1,QVQLVESGGGLVQAGGSLRLTCAASGRTFPGNAMGWYRQAPGKERELVAAISWSVDRTYYADSVKGRFTISRDNAKNTVYLQMNSLKPEDTAVYYCAAVHWWSSSLRMYYWGQGTQVTVSS,low polyreactivity
2,QVQLVESGGGLVQAGGSLRLTCAASGRTFQYYVMVWYRQAPGKEREFVAAISTSGGRTYYADSVKGRFTISRDNAKNSVYLQMNSLKPEATAVYYCAATGFSYRYFQTRDYWGQGTQVTVSS,high polyreactivity
3,QVQLVESGGGLVQAGGSLRLTCAASGRTFRIYAMGWYRQAPGKERELVAAITRRGGSTYYADSVKGRFTISLDNAKNTVNLQMNSLKPEDTAVYYCAAELRYGYLYPYDSWGQGTQVTVSS,high polyreactivity
4,QVQLVESGGGLVQAGGSLRLTCAASGRTFRSYAMGWYRQAPGKERELVAAISDGGSTNYADSVKGRFTISRDNAKNTVYLQMNSLKPEDTAVYYCAAEIFFAVFRFYYWGQGTQVTVSS,low polyreactivity
5,QVQLVESGGGLVQAGGSLRLTCAASGRTLRNYAMGWYRQPPGKERELVATITYRGGSTYYADSVKGRFTISRDNAKNTVYLKRNCLKPEDTAVYYCAARTSSYSFQYAYNYWGQGTQVTVSS,high polyreactivity
6,QVQLVESGGGLVQAGGSLRLTCAASGRTLVPYVMGWYRQAPGKERELVASITSGGSTYYADSVKGRFTISRDNAKNTVYLQMNSLKPEDTAVYYCATRQSAERWGYYYWGQGTQVTVSS,low polyreactivity
7,QVQLVESGGGLVQAGGSLRLTCAASGSIFGTYAMGWYRQAPGKERQLVAAISWSDGSTYYADSVKGRFTISRDTAKNTFYLQMNSRKPEDTAVEYCAKVYRSIGPNVSRYGLSYYDWGHGTQVTVSS,low polyreactivity
8,QVQLVESGGGLVQAGGSLRLTCAASGSIFNGYAMGCYRQAPGKERELVAAIRTRGGSTYYADSVKGRFTISRDIAMNTVYLQMNSLKPEDTAVYYCAKRYFGWYGNFDYWGQGTQVTVSS,high polyreactivity
9,QVQLVESGGGLVQAGGSLRLTCAASGSIFRDNVMGWSRQAPGKERELVAAISKRGGSTYYADSVKGRFTISRDNAKNTVYLQMNSLKPEDTAVYYCAAPQGRSHYYRYDYWGQGTQVTVSS,high polyreactivity
10,QVQLVESGGGLVQAGGSLRLTCAASGSIFRRNAMGWYRQAPGKERELVAAISWSGGDTYYADSVKGRFTISRDNAKNTVYLQMNSLKPEDTAVYYCAAEYYRPYYGESYDYWGQGTQVTVSS,high polyreactivity
11,QVQLVESGGGLVQAGGSLRLTCAASGSIFRYYAMGWYRQAPGKERELVAAISRSGGSTYYADSVKGRFTISRDNAKNTVYLQMNSLKPEDTAVYYCAAEYRVRSQGYDYWGQGTQVTVSS,high polyreactivity
12,QVQLVESGGGLVQAGGSLRLTCAASGSIFSYYAMGWYRQAPGKERELVAAITSGGGTYYADSVKGRFTISRDNAKNTVFLQMNSLKPEDTAVYYCAKDGYPDQDVQVFNDSDYWGQGTQVTVSS,low polyreactivity
13,QVQLVESGGGLVQAGGSLRLTCAASGSIFVGYAMGWYRQAPGKERELVAAITGSGTRTYYADSVKGRFTISRDNAKNTVYLQMNSLKPEDTAVYYCAADYFRYYPYDYWGQGTQVTVSS,low polyreactivity
14,QVQLVESGGGLVQAGGSLRLTCAASGSIFVNNAMGWYRQAPGKERELVAAISSRSSRTFYADSVKGRFTISRDNAKNTVYLQMNSLKPEDTAVYYCAVKKRAPDGDYWGQGTQVTVSS,high polyreactivity
15,QVQLVESGGGLVQAGGSLRLTCAASGSIFVQNAMGWYRQEPGKERELVATISRRGGSTYYADSVKGRFTISRDNAKNTVYLQMNSLKPEDPAVYYSAARKLRTLWGYWGQGTQVTVSS,high polyreactivity
